Patent publication US20240059799A1 (Pfizer, published 2024)
Substitutions are numbered along the chain they refer to. One block for each binder: values may come before it.

Key:
recombinant human TL1A [1] = biological target: T1, recombinant human TL1A (human, UniProt O95150 71-251); test: cell-based or functional assay
T1 chain: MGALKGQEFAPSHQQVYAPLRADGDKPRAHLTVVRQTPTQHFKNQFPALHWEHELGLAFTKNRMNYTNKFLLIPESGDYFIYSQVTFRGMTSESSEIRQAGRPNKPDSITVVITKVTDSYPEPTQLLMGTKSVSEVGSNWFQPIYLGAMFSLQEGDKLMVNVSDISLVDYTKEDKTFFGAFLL

recombinant human TL1A [2] = biological target: T1, recombinant human TL1A; test: SPR, recombinant human TL1A
recombinant human TL1A [3] = biological target: T1, recombinant human TL1A; test: SPR 37 C, biotinylated TL1A captured, antibody injected
Protocol: (§1) For these analyses, kinetic assays were conducted at 37° C. using a collection rate of 10 Hz on a Biacore™ T200 instrument (GE Healthcare). […] The association phase was 90 seconds, and the dissociation phases were 1600 seconds over human, cynomolgus monkey and rabbit TL1A and 180 seconds for mouse and rat TL1A.

[4] = biological target: T2, recombinant cynomolgus monkey TL1A (cynomolgus monkey, UniProt O95150 72-251 (human entry)); test: as above
T2 construct: biotinylated with Sulfo-NHS-biotin and captured for SPR
T2 chain: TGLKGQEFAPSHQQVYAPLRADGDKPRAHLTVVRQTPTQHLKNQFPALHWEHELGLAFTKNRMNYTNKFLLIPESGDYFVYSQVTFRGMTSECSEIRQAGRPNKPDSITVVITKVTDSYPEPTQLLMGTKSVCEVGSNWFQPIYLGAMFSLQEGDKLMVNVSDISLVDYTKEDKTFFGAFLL
Protocol: as §1

recombinant mouse TL1A = biological target: T3, recombinant mouse TL1A (mouse, UniProt Q5UBV8 75-252); test: as above
T3 construct: biotinylated with Sulfo-NHS-biotin and captured for SPR
T3 chain: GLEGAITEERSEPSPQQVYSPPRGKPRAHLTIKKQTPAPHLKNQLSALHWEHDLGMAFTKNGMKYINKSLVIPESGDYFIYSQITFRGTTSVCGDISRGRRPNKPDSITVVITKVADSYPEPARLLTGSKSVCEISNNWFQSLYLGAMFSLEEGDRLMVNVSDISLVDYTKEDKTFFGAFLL
Protocol: as §1

recombinant rat TL1A [5] = biological target: T4, recombinant rat TL1A (rat, UniProt Q8K3Y7 76-252); test: as above
T4 construct: biotinylated with Sulfo-NHS-biotin and captured for SPR
T4 sequence: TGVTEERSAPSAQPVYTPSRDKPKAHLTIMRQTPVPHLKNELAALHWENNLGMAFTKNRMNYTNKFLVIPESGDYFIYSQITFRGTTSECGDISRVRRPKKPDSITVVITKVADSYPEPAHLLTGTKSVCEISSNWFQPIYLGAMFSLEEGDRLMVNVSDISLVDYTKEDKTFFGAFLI
Protocol: as §1

recombinant rat TL1A [6] = biological target: T4, recombinant rat TL1A; test: SPR 37 C, biotinylated TL1A captured, antibody injected; approximate KD
Protocol: as §1

bovine serum albumin = biological target: T5, bovine serum albumin (bovine, UniProt P02769 25-607); test: direct binding ELISA on plate-coated BSA (1 ug/mL), anti-human IgG-Fc HRP, OD450
T5 construct: also called BSA
Protocol: (§2) For the direct binding ELISA method to HSA or BSA, 96-well high binding plates (Corning, product number 3590) were coated with 1 μg/mL recombinant HSA or BSA in 100 μL/well in PBS overnight at 4° C. Plates were then blocked in PBS+0.02% casein solution and washed with PBS+0.05% Tween-20 following standard ELISA protocol. […] Plates were washed with PBS+0.05% Tween-20 following standard ELISA protocol, and goat anti-human IgG-Fc HRP conjugated secondary antibody (Pierce, #31413) diluted to 1:10,000 in assay buffer was added to plates and incubated for 1 hour at room temperature. Next, the plates were washed with PBS+0.05% Tween-20 following standard ELISA protocol, and then TMB substrate (BioFX Laboratories, catalog number TMBW-0100-01) was added to plates.
(§3) Reactions were stopped after approximately 5 minutes by adding 0.18 M ortho-phosphoric acid to each well and absorbance was read at 450 nm. […] For this method, samples diluted to 0.3 mg/mL were dispensed into the sample tray of a MicroCal VP-Capillary DSC with Autosampler (Malvern Instruments, Inc.), equilibrated for 5 minutes at 10° C. and then scanned up to 110° C. at a rate of 100° C. per/hour. A filtering period of 16 seconds was selected. Raw data was baseline corrected and the protein concentration was normalized. Origin Software 7.0 (Origin Lab Corporation, Northampton, MA) was used to fit the data to an MN2-State Model with an appropriate number of transitions.

human serum albumin = biological target: T6, human serum albumin (human, UniProt P02768 25-609); test: direct binding ELISA on plate-coated HSA (1 ug/mL), anti-human IgG-Fc HRP, OD450
T6 construct: also called HSA
Protocol: as §2, §3

recombinant human TL1A [7] = biological target: T7, recombinant human TL1A (human, UniProt O95150 71-251); test: SPR, antibody injected over captured biotinylated human TL1A
T7 construct: homotrimer; biotinylated for SPR capture; the ELISA paragraphs say only 'recombinant TL1A'; also called TNFSF15
T7 chain: T1 chain
Protocol: An SPR assay was also used to determine whether the [xTL1A] bivalent antibody variants could bind recombinant human TL1A. […] A high concentration (1 μM) of [xTL1A] variant antibodies were injected in assay buffer (HBS-EP+, pH 7.4, Cytiva, product number BR100669).

human IL-12 = biological target: T8, human IL-12 (human, UniProt P29460 23-328; P29459 23-219); test: SPR 37 C, antibody captured by anti-human Fc, cytokine injected
T8 construct: Heterodimer p40/p35; also called IL-12 Human
T8 sequence 1: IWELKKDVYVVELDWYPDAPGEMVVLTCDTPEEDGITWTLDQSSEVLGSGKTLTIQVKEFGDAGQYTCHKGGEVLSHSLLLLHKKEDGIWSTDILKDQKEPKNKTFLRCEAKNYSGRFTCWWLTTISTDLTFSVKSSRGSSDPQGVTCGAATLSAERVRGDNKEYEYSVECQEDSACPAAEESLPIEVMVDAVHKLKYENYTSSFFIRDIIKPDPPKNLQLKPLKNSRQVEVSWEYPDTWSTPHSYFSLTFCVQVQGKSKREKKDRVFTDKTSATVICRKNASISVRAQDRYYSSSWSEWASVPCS
T8 sequence 2: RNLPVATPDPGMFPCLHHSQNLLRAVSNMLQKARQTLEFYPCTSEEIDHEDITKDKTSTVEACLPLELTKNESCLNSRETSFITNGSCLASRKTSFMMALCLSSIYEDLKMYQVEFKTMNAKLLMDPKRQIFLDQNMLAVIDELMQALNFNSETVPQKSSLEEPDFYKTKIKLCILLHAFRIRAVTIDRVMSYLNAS
Protocol: (§4) For these analyses, kinetic assays were conducted at 37° C. using a collection rate of 10 Hz on a BIAcore™ T200 instrument (GE Healthcare). An anti-human IgG antibody (anti-human Fc, catalog number 10-005-098, Jackson ImmunoResearch) was amine coupled to all four flow cells of a carboxymethylated dextran coated sensor chip (GE Healthcare) using the manufacturer's recommended protocol.

cynomolgus monkey IL-12 = biological target: T9, cynomolgus monkey IL-12 (cynomolgus monkey); test: as above
T9 construct: Heterodimer p40/p35; Whole entries as named; also called IL-12 Cyno
T9 chain 1: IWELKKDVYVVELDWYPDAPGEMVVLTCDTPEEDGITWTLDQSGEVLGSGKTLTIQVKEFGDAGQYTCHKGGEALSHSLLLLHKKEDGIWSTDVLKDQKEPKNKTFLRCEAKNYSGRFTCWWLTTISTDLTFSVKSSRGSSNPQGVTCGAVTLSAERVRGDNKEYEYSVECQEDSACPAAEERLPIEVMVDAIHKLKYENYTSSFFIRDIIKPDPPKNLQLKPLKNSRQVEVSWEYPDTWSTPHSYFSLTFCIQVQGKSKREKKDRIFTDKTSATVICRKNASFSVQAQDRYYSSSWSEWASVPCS
T9 chain 2: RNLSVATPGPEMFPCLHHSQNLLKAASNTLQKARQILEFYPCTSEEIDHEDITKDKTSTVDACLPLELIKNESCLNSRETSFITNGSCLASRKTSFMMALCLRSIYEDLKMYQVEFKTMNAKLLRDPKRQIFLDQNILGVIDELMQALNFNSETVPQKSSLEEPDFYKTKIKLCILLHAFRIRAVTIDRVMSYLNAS
Protocol: as §4

human IL-23 = biological target: T10, human IL-23 (human, UniProt P29460 23-328; Q9NPF7 20-189); test: as above
T10 construct: Heterodimer p40/p19; Whole entries as named; also called IL-23 Human; recombinant human IL-23
T10 sequence 1: T8 sequence 1
T10 sequence 2: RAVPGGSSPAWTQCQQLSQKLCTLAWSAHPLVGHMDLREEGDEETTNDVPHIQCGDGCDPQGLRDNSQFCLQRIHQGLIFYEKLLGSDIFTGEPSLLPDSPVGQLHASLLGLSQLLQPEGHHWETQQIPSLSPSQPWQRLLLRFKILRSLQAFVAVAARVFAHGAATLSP
Protocol: as §4

cynomolgus monkey IL-23 = biological target: T11, cynomolgus monkey IL-23 (cynomolgus monkey, limits assumed); test: as above
T11 construct: Heterodimer p40/p19; Whole entries as named; also called IL-23 Cyno
T11 chain 1: T9 chain 1
T11 chain 2: T10 sequence 2 with T12A, H75R, L131P
Protocol: as §4

T5 sequence (P02769 25-607 limits assumed): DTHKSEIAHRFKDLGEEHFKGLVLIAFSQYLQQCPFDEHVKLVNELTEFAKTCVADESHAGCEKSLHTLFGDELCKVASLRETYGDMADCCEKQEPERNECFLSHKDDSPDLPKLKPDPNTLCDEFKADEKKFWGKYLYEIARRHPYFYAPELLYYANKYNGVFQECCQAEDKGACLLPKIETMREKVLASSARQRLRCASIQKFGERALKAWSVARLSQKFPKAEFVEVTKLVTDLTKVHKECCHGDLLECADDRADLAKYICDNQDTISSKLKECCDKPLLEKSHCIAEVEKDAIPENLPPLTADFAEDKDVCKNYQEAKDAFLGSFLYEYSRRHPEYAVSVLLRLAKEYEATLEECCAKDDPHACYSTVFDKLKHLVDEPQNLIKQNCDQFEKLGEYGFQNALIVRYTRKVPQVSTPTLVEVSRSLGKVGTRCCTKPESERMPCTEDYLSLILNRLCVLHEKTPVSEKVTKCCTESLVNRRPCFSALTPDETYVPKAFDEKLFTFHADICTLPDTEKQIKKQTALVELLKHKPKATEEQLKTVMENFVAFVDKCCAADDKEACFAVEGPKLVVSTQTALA

NFκB Bioassay IC50 (recombinant human TL1A [1]): 1.47 nM
Kd (recombinant human TL1A [2]): 0.286 nM
koff (recombinant human TL1A [2]): 4.98e-05 s⁻¹
kon (recombinant human TL1A [2]): 174000 M⁻¹ s⁻¹
Kd (recombinant human TL1A [3]): 0.54 nM
koff (recombinant human TL1A [3]): 6.21e-05 s⁻¹
kon (recombinant human TL1A [3]): 114000 M⁻¹ s⁻¹
Kd [4]: 1.27 nM
koff [4]: 0.000121 s⁻¹
kon [4]: 96400 M⁻¹ s⁻¹
Kd (recombinant mouse TL1A): 295 nM
koff (recombinant mouse TL1A): 0.00708 s⁻¹
kon (recombinant mouse TL1A): 24000 M⁻¹ s⁻¹
koff (recombinant rat TL1A [5]): 0.0483 s⁻¹
kon (recombinant rat TL1A [5]): 32200 M⁻¹ s⁻¹
Kd (recombinant rat TL1A [6]): ~1510 nM
binding result (bovine serum albumin): no binding (tested: 1e-6 M)
binding result (human serum albumin): no binding (tested: 1e-6 M)
B1: TL1A-0372 (bispecific antibody, human IgG1, kappa)
heavy 1: QVQLVQSGAEVKKPGASVKVSCKASGYDYTYYGISWVRQAPGQGLEWMGWISTYNTGTHYAPSLQGRVTMTTDTSTSTAYMELRSLRSDDTAVYYCARESYYGSGAFRGGMDVWGQGTTVTVSSASTKGPSVFPLAPSSKSTSGGTAALGCLVKDYFPEPVTVSWNSGALTSGVHTFPAVLQSSGLYSLSSVVTVPSSSLGTQTYICNVNHKPSNTKVDKKVEPKSCDKTHTCPPCPAPEAAGAPSVFLFPPKPKDTLMISRTPEVTCVVVDVSHEDPEVKFNWYVDGVEVHNAKTKPREEQYNSTYRVVSVLTVLHQDWLNGKEYKCKVSNKALPAPIEKTISKAKGQPREPQVCTLPPSREEMTKNQVSLWCLVKGFYPSDIAVEWESNGQPENNYKTTPPVLDSDGSFFLYSKLTVDKSRWQQGNVFSCSVLHEALHSHYTQKSLSLSPGK
heavy 2: not shown
light: not shown
notes: monovalent bispecific (null-arm) antibody, IgG1 KiH, LS

binding result (recombinant human TL1A [7]): no binding (tested: 1 µM)
B2: [xTL1A]-0349 bivalent antibody (antibody, human IgG1, kappa, V domains shown)
VH: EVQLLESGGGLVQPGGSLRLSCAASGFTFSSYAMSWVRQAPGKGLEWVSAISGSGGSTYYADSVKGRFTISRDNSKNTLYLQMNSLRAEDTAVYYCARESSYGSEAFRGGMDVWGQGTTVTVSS
VL: DIQMTQSPSSLSASVGDRVTITCRASQSVSSYLAWYQQKPGKAPKLLIYDASNRATGVPSRFSGSGSGTDFTLTISSLQPEDFATYYCQQRSNWPWTFGQGTKVEIKR
notes: disabled (null) bivalent IgG1/kappa

Kd (human IL-12): 0.156 nM
Kd (cynomolgus monkey IL-12): 0.368 nM
Kd (human IL-23): 0.16 nM
Kd (cynomolgus monkey IL-23): 0.317 nM
B3: p40-0003 (antibody, human IgG1, kappa, V domains shown)
VH: EVQLVQSGAEVKKPGESLKISCKGSGYSFTTYWLGWVRQMPGKGLDWIGIMSPVDSDIRYSPSFQGQVTMSVDKSITTAYLQWNSLKASDTAMYYCARRRPGQGYFDFWGQGTLVTVSS
VL: DIQMTQSPSSLSASVGDRVTITCRASQGISSWLAWYQQKPEKAPKSLIYAASSLQSGVPSRFSGSGSGTDFTLTISSLQPEDFATYYCQQYNIYPYTFGQGTKLEIKR
notes: human IgG1 effector-function-minimized/kappa; also called anti-IL12p40 p40-0003 antibody; C230 (ustekinumab) variable regions
